From PMC11542179, “Unraveling the Bivalent and Rapid Interactions Between a Multivalent RNA Recognition Motif and RNA: A Kinetic Approach”

Assays:
[1] = molecular target: T1, MSI1 RRM1-RRM2 tandem (Homo sapiens, UniProt O43347 1-200); assay: SPR; KD1 monovalent step, new model; SPR, 3'-biotinylated RNA immobilized on dextran sensor chip, protein as analyte; running buffer, salt, pH and temperature not in the material; conditions: protein: recombinant, label: 3'-biotin
[2] = molecular target: T1, MSI1 RRM1-RRM2 tandem; assay: SPR; KD1, bivalent analyte model; SPR, 3'-biotinylated RNA immobilized on dextran sensor chip, protein as analyte; running buffer, salt, pH and temperature not in the material; conditions: protein: recombinant, label: 3'-biotin
[3] = molecular target: T2, MSI1 RRM2 (Homo sapiens, UniProt O43347 104-200); assay: SPR; 1:1 with mass transport; SPR, 3'-biotinylated RNA immobilized on dextran sensor chip, protein as analyte; running buffer, salt, pH and temperature not in the material; conditions: protein: recombinant, tags: C-terminal Strep-tag, label: 3'-biotin
[4] = molecular target: T3, MSI1 RRM1 (Homo sapiens, UniProt O43347 1-103); assay: as above; conditions: protein: recombinant, tags: N-terminal Strep-tag, label: 3'-biotin
[5] = molecular target: T1, MSI1 RRM1-RRM2 tandem; assay: SPR; KD1, bivalent analyte model (Table 3 prints 41); SPR, 3'-biotinylated RNA immobilized on dextran sensor chip, protein as analyte; running buffer, salt, pH and temperature not in the material; conditions: protein: recombinant; label: 3'-biotin; linear, single UAG motif
[6] = molecular target: T1, MSI1 RRM1-RRM2 tandem; assay: SPR; KD1, induced fit model; SPR, 3'-biotinylated RNA immobilized on dextran sensor chip, protein as analyte; running buffer, salt, pH and temperature not in the material; conditions: protein: recombinant; label: 3'-biotin; linear, single UAG motif
[7] = molecular target: T1, MSI1 RRM1-RRM2 tandem; assay: SPR; 1:1 model (poor fit); SPR, 3'-biotinylated RNA immobilized on dextran sensor chip, protein as analyte; running buffer, salt, pH and temperature not in the material; conditions: protein: recombinant; label: 3'-biotin; linear, single UAG motif
[8] = molecular target: T1, MSI1 RRM1-RRM2 tandem; assay: SPR; KD1 monovalent step, new rapid 2:1 model; SPR, 3'-biotinylated RNA immobilized on dextran sensor chip, protein as analyte; running buffer, salt, pH and temperature not in the material; conditions: protein: recombinant; label: 3'-biotin; linear, single UAG motif
[9] = molecular target: T2, MSI1 RRM2; assay: SPR; 1.9-500 nM; SPR, 3'-biotinylated RNA immobilized on dextran sensor chip, protein as analyte; running buffer, salt, pH and temperature not in the material; conditions: protein: recombinant; tags: C-terminal Strep-tag; label: 3'-biotin
[10] = molecular target: T3, MSI1 RRM1; assay: as above; conditions: protein: recombinant; tags: N-terminal Strep-tag; label: 3'-biotin
[11] = molecular target: T1, MSI1 RRM1-RRM2 tandem; assay: SPR; 7.8-250 nM; SPR, 3'-biotinylated RNA immobilized on dextran sensor chip, protein as analyte; running buffer, salt, pH and temperature not in the material; conditions: protein: recombinant; label: 3'-biotin

T3 sequence (O43347 1-103): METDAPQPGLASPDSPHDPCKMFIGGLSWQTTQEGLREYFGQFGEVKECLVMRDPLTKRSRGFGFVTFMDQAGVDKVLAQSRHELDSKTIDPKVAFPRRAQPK
T2 sequence (O43347 104-200): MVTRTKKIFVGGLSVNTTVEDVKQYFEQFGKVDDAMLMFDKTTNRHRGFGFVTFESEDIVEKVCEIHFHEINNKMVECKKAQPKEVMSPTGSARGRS
T1 sequence (O43347 1-200): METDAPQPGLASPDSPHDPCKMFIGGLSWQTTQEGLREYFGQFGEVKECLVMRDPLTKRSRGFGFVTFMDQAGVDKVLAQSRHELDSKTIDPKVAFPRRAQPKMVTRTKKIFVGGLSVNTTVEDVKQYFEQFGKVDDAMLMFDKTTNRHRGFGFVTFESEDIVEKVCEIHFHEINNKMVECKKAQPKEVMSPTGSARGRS

Question: Which results are given for UUGUCAGUUACCCCUU (ssRNA) [RNA-L1a]?
Answer: Kd ([1]; linear): 1170 nM; Kd ([2]; linear): 1410 nM; Kd ([3]; linear): 123 nM; Kd ([4]; linear): 151 nM

Question: How did the Kd [5] turn out when UUGUUAGUUACCCCUU (ssRNA) [RNA-L1] was run?
Answer: The Kd was 42 nM.

Question: And the Kd [6]?
Answer: The Kd was 24 nM.

Question: What about the Kd ([3]; linear, single UAG motif) of the same binder?
Answer: Its Kd is 25 nM.

Question: What about the Kd ([4]; linear, single UAG motif) of the same binder?
Answer: The Kd was 47 nM.

Question: What about the Kd [7] of the same binder?
Answer: Its Kd is 2 nM.

Question: What about the Kd [8] of the same binder?
Answer: The Kd was 58 nM.

Question: Which results are given for AAGCGUUAGUUAUUUAGUCGCUU (structured_RNA) [RNA-HP2a]?
Answer: Kd ([1]; potential hairpin): 77 nM; Kd ([2]; potential hairpin): 45 nM; Kd ([3]; potential hairpin): 37 nM; Kd ([4]; potential hairpin): 22 nM

Question: Does CGGCGCCGC (ssRNA) [RNA C] bind [9]?
Answer: Result: no binding

Question: Does CGGCGCCGC (ssRNA) [RNA C] bind [10]?
Answer: Result: no binding

Question: Does CGGCGCCGC (ssRNA) [RNA C] bind [11]?
Answer: Result: no binding

Question: CACUCUGUAGUAUGUAGGGUUUAUUU (structured_RNA) [RNA-HP2b] was tested. Which Kd ([1]; potential hairpin) did it give?
Answer: Its Kd is 49 nM.

Question: What about the Kd ([2]; potential hairpin) of the same binder?
Answer: The Kd was 144 nM.

Question: What about the Kd ([3]; potential hairpin) of the same binder?
Answer: Its Kd is 26 nM.

Question: What about the Kd ([4]; potential hairpin) of the same binder?
Answer: The Kd was 33 nM.
